The results in this text go back to article doi:10.1101/2021.06.09.447696, “A dual allosteric pathway drives human mitochondrial Lon” (bioRxiv, 2021).

As a reminder, the stoichiometry N is a count of units in the complex or per binding partner.

First the molecules themselves.
B3: human mitochondrial Lon (68-959) K898A (enzyme, UniProt P36776 68-959, looked up)
chain: FWEASSRGGGAFSGGEDASEGGAEEGAGGAGGSAGAGEGPVITALTPMTIPDVFPHLPLIAITRNPVFPRFIKIIEVKNKKLVELLRRKVRLAQPYVGVFLKRDDSNESDVVESLDEIYHTGTFAQIHEMQDLGDKLRMIVMGHRRVHISRQLEVEPEEPEAENKHKPRRKSKRGKKEAEDELSARHPAELAMEPTPELPAEVLMVEVENVVHEDFQVTEEVKALTAEIVKTIRDIIALNPLYRESVLQMMQAGQRVVDNPIYLSDMGAALTGAESHELQDVLEETNIPKRLYKALSLLKKEFELSKLQQRLGREVEEKIKQTHRKYLLQEQLKIIKKELGLEKDDKDAIEEKFRERLKELVVPKHVMDVVDEELSKLGLLDNHSSEFNVTRNYLDWLTSIPWGKYSNENLDLARAQAVLEEDHYGMEDVKKRILEFIAVSQLRGSTQGKILCFYGPPGVGKTSIARSIARALNREYFRFSVGGMTDVAEIKGHRRTYVGAMPGKIIQCLKKTKTENPLILIDEVDKIGRGYQGDPSSALLELLDPEQNANFLDHYLDVPVDLSKVLFICTANVTDTIPEPLRDRMEMINVSGYVAQEKLAIAERYLVPQARALCGLDESKAKLSSDVLTLLIKQYCRESGVRNLQKQVEKVLRKSAYKIVSGEAESVEVTPENLQDFVGKPVFTVERMYDVTPPGVVMGLAWTAMGGSTLFVETSLRRPQDKDAKGDKDGSLEVTGQLGEVMKESARIAYTFARAFLMQHAPANDYLVTSHIHLHVPEGATPKDGPSAGCTIVTALLSLAMGRPVRQNLAMTGEVSLTGKILPVGGIKEATIAAKRAGVTCIVLPAENKKDFYDLAAFITEGLEVHFVEHYREIFDIAFPDEQAEALAVER
notes: human mitochondrial LonP1, mature protein, residues 68-959 of UniProt P36776, with K898A; The substrate is trapped as a covalent ester intermediate on S855; also called Lon^K898A; substrate-trapped Lon; not shown: His6, N-terminal, cleaved

Data set [1] concerns the molecule itself. In words: cryo-EM structure; 0.5-0.7 mg/ml Lon construct in 20 mM HEPES pH 7.5, 100 mM NaCl, 10 mM MgCl2, 3% glycerol, 2 mM ATP added to 0.2 mg/ml TFAM, 30 s at room temperature, then vitrified; single-particle reconstruction.
Data set [2] concerns the molecule itself. In words: SEC; Superose 6 Increase 3.2/300; 25 mM Tris-HCl pH 8.0, 10% glycerol, 1 mM DTT, 50 mM NaCl, 2 mM ATP; protein incubated at 37°C for 10 min with 2 mM ATP and 10 mM MgCl2; fractions analysed by SDS-PAGE.
For data set [3], the target named is T1, human mitochondrial Lon, full-length mature form (68-959), wild type (human, UniProt P36776 68-959).
T1 construct: human mitochondrial LonP1, mature protein, residues 68-959 of UniProt P36776; Homohexamer in the cryo-EM structure; vector pNIC28-Bsa4; also called LonP1; wt-Lon; not shown: His6, N-terminal, cleaved
T1 sequence (looked up): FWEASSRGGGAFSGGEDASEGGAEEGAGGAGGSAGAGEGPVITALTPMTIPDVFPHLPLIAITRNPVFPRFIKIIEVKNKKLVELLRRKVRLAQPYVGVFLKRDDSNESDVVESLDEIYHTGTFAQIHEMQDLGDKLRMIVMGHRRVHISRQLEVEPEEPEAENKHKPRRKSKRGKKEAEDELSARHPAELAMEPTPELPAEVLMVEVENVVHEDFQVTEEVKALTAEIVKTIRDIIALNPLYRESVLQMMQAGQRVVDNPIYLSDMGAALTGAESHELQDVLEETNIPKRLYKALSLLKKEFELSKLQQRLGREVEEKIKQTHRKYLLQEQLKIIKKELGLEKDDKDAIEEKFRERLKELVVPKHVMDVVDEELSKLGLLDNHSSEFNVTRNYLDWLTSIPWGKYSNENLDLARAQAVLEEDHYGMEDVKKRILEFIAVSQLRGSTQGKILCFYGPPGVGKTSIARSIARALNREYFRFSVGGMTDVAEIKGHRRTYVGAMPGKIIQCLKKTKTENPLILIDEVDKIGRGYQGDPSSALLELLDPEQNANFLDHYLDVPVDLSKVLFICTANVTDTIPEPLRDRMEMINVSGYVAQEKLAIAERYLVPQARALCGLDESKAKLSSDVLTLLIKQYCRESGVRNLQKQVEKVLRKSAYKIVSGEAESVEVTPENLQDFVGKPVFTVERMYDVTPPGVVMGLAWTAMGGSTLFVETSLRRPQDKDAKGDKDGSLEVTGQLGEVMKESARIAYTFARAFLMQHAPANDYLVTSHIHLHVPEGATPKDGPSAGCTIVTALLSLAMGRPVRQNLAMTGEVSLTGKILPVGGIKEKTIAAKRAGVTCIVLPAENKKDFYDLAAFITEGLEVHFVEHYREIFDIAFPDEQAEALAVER
In words: cryo-EM structure; 0.5-0.7 mg/ml Lon construct in 20 mM HEPES pH 7.5, 100 mM NaCl, 10 mM MgCl2, 3% glycerol, 2 mM ATP added to 0.2 mg/ml TFAM, 30 s at room temperature, then vitrified; single-particle reconstruction. As to conditions: both partners purified.

Data set [4] addresses B3. Described as above. As to conditions: both partners purified.

B1: human mitochondrial Lon (68-959) G106P, R563W, K594M (enzyme, UniProt P36776 68-959, looked up)
chain: FWEASSRGGGAFSGGEDASEGGAEEGAGGAGGSAGAGEPPVITALTPMTIPDVFPHLPLIAITRNPVFPRFIKIIEVKNKKLVELLRRKVRLAQPYVGVFLKRDDSNESDVVESLDEIYHTGTFAQIHEMQDLGDKLRMIVMGHRRVHISRQLEVEPEEPEAENKHKPRRKSKRGKKEAEDELSARHPAELAMEPTPELPAEVLMVEVENVVHEDFQVTEEVKALTAEIVKTIRDIIALNPLYRESVLQMMQAGQRVVDNPIYLSDMGAALTGAESHELQDVLEETNIPKRLYKALSLLKKEFELSKLQQRLGREVEEKIKQTHRKYLLQEQLKIIKKELGLEKDDKDAIEEKFRERLKELVVPKHVMDVVDEELSKLGLLDNHSSEFNVTRNYLDWLTSIPWGKYSNENLDLARAQAVLEEDHYGMEDVKKRILEFIAVSQLRGSTQGKILCFYGPPGVGKTSIARSIARALNREYFRFSVGGMTDVAEIKGHRWTYVGAMPGKIIQCLKKTKTENPLILIDEVDMIGRGYQGDPSSALLELLDPEQNANFLDHYLDVPVDLSKVLFICTANVTDTIPEPLRDRMEMINVSGYVAQEKLAIAERYLVPQARALCGLDESKAKLSSDVLTLLIKQYCRESGVRNLQKQVEKVLRKSAYKIVSGEAESVEVTPENLQDFVGKPVFTVERMYDVTPPGVVMGLAWTAMGGSTLFVETSLRRPQDKDAKGDKDGSLEVTGQLGEVMKESARIAYTFARAFLMQHAPANDYLVTSHIHLHVPEGATPKDGPSAGCTIVTALLSLAMGRPVRQNLAMTGEVSLTGKILPVGGIKEKTIAAKRAGVTCIVLPAENKKDFYDLAAFITEGLEVHFVEHYREIFDIAFPDEQAEALAVER
notes: human mitochondrial LonP1, mature protein, residues 68-959 of UniProt P36776, with the mutations G106P, R563W and K594M that arose spontaneously on cloning; also called Lon^Apo; substrate-free form of Lon; not shown: His6, N-terminal, cleaved
For the molecule B1, the binding result in data set [1] is given as “binds”.

B2: human mitochondrial Lon (68-959) L396A (enzyme, UniProt P36776 68-959, looked up)
chain: FWEASSRGGGAFSGGEDASEGGAEEGAGGAGGSAGAGEGPVITALTPMTIPDVFPHLPLIAITRNPVFPRFIKIIEVKNKKLVELLRRKVRLAQPYVGVFLKRDDSNESDVVESLDEIYHTGTFAQIHEMQDLGDKLRMIVMGHRRVHISRQLEVEPEEPEAENKHKPRRKSKRGKKEAEDELSARHPAELAMEPTPELPAEVLMVEVENVVHEDFQVTEEVKALTAEIVKTIRDIIALNPLYRESVLQMMQAGQRVVDNPIYLSDMGAALTGAESHELQDVLEETNIPKRLYKALSLLKKEFELSKLQQRLGREVEEKIKQTHRKYLAQEQLKIIKKELGLEKDDKDAIEEKFRERLKELVVPKHVMDVVDEELSKLGLLDNHSSEFNVTRNYLDWLTSIPWGKYSNENLDLARAQAVLEEDHYGMEDVKKRILEFIAVSQLRGSTQGKILCFYGPPGVGKTSIARSIARALNREYFRFSVGGMTDVAEIKGHRRTYVGAMPGKIIQCLKKTKTENPLILIDEVDKIGRGYQGDPSSALLELLDPEQNANFLDHYLDVPVDLSKVLFICTANVTDTIPEPLRDRMEMINVSGYVAQEKLAIAERYLVPQARALCGLDESKAKLSSDVLTLLIKQYCRESGVRNLQKQVEKVLRKSAYKIVSGEAESVEVTPENLQDFVGKPVFTVERMYDVTPPGVVMGLAWTAMGGSTLFVETSLRRPQDKDAKGDKDGSLEVTGQLGEVMKESARIAYTFARAFLMQHAPANDYLVTSHIHLHVPEGATPKDGPSAGCTIVTALLSLAMGRPVRQNLAMTGEVSLTGKILPVGGIKEKTIAAKRAGVTCIVLPAENKKDFYDLAAFITEGLEVHFVEHYREIFDIAFPDEQAEALAVER
notes: human mitochondrial LonP1, mature protein, residues 68-959 of UniProt P36776, with L396A; also called L396A Lon mutant; Lon L396A; not shown: His6, N-terminal, cleaved
In the case of B2, the binding result in data set [2] is given as “binds”.
B3: the “stoichiometry N” value in data set [1] turned out to be 6.

B4: mitochondrial transcription factor A, mature (amino acids 43-246) (natural protein, UniProt Q00059 43-246, looked up)
chain: SSVLASCPKKPVSSYLRFSKEQLPIFKAQNPDAKTTELIRRIAQRWRELPDSKKKIYQDAYRAEWQVYKEEISRFKEQLTPSQIMSLEKEIMDKHLKRKAMTKKKELTLLGKPKRPRSAYNVYVAERFQEAKGDSPQEKLKTVKENWKNLSDSEKELYIQHAKEDETRYHNEMKSWEEQMIEVGRKDLLRRTIKKQRKYGAEEC
notes: mitochondrial transcription factor A (TFAM), mature, amino acids 43-246; also called TFAM; substrate; not shown: His6, N-terminal, cleaved
For the molecule B4, the binding result in data set [3] and in data set [4] was “binds” throughout.
